This is an account of results in patent US20170044251A1.

Holding throughout (experiment): ELISA on coated peptide-OVA conjugate, FCA control egg yolk sample, dilution not given
Background: In an ELISA, binding on a coated surface is turned into a signal by an enzyme label.

In experiment [1] the target is IL-10 Peptide #4 (SEQ ID NO: 10) conjugated to hen ovalbumin (avian animals, such as chickens, quail, and turkeys; hen) (UniProt P01012).
Experiment [2] addresses IL-10 Peptide #3 (SEQ ID NO: 7) conjugated to hen ovalbumin (avian animals, such as chickens, quail, and turkeys; hen) (UniProt P01012).
Experiment [3] deals with IL-10 Peptide #1 (SEQ ID NO: 1) conjugated to hen ovalbumin (avian animals, such as chickens, quail, and turkeys; hen) (UniProt P01012).

FCA control egg antibody: the optical density in experiment [1] was 0.6 OD 450 nm; in experiment [2], 0.499 OD 450 nm; in experiment [3], 0.56 OD 450 nm.
